Target: T1, human Arnt fused to Gal4 DNA-binding domain in pGBKT7 (human, UniProt P27540 1-789)
T1 construct: Arnt, human cDNA; This fusion alone induces the reporter; also called pGBK-Arnt; source: yeast two-hybrid fusion, yeast strain Y187
Assay: two-hybrid; yeast two-hybrid in strain Y187, pGADT7 and pGBKT7 fusions, 1 μM 3MC or 0.1% DMSO for 12 h at 30°C, β-galactosidase read-out (o-nitrophenol-β-D-galactopyranoside); DDB1 or CUL4B co-expressed from pESC in some samples
Settings: partners not purified

T1 sequence (P27540 whole entry, the tested form may be a part): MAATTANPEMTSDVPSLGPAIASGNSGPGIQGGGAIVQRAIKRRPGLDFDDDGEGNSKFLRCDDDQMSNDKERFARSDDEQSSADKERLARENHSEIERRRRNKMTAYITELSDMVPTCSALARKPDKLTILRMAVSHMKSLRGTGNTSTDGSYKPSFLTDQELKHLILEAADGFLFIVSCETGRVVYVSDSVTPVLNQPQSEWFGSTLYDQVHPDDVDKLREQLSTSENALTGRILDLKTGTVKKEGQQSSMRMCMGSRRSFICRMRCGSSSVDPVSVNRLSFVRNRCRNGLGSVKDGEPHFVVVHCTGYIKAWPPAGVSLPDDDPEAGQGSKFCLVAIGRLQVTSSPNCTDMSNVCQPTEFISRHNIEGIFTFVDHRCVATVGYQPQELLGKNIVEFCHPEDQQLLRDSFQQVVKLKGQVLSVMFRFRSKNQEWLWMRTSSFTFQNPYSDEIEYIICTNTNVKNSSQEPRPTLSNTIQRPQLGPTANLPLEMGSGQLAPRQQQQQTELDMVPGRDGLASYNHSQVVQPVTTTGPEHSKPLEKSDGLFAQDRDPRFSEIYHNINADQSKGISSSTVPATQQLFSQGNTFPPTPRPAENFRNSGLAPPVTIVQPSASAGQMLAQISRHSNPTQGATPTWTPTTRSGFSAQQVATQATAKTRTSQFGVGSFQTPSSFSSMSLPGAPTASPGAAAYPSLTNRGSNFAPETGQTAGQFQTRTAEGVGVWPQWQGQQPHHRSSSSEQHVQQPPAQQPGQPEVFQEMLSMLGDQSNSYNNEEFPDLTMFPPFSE

B1: human AhR fused to Gal4 activating domain in pGADT7 (natural protein, UniProt P35869 1-848, looked up)
chain: MNSSSANITYASRKRRKPVQKTVKPIPAEGIKSNPSKRHRDRLNTELDRLASLLPFPQDVINKLDKLSVLRLSVSYLRAKSFFDVALKSSPTERNGGQDNCRAANFREGLNLQEGEFLLQALNGFVLVVTTDALVFYASSTIQDYLGFQQSDVIHQSVYELIHTEDRAEFQRQLHWALNPSQCTESGQGIEEATGLPQTVVCYNPDQIPPENSPLMERCFICRLRCLLDNSSGFLAMNFQGKLKYLHGQKKKGKDGSILPPQLALFAIATPLQPPSILEIRTKNFIFRTKHKLDFTPIGCDAKGRIVLGYTEAELCTRGSGYQFIHAADMLYCAESHIRMIKTGESGMIVFRLLTKNNRWTWVQSNARLLYKNGRPDYIIVTQRPLTDEEGTEHLRKRNTKLPFMFTTGEAVLYEATNPFPAIMDPLPLRTKNGTSGKDSATTSTLSKDSLNPSSLLAAMMQQDESIYLYPASSTSSTAPFENNFFNESMNECRNWQDNTAPMGNDTILKHEQIDQPQDVNSFAGGHPGLFQDSKNSDLYSIMKNLGIDFEDIRHMQNEKFFRNDFSGEVDFRDIDLTDEILTYVQDSLSKSPFIPSDYQQQQSLALNSSCMVQEHLHLEQQQQHHQKQVVVEPQQQLCQKMKHMQVNGMFENWNSNQFVPFNCPQQDPQQYNVFTDLHGISQEFPYKSEMDSMPYTQNFISCNQPVLPQHSKCTELDYPMGSFEPSPYPTTSSLEDFVTCLQLPENQKHGLNPQSAIITPQTCYAGAVSMYQCQPEPQHTHVGQMQYNPVLPGQQAFLNKFQNGVLNETYPAELNNINNTQTTTHLQPLHHPSEARPFPDLTSSGFL
notes: aryl-hydrocarbon receptor (AhR), human cDNA; also called pGAD-AhR; aryl-hydrocarbon receptor; source: yeast two-hybrid fusion, yeast strain Y187
In the case of B1, the “fold increase of two-hybrid reporter activity over pGBK-Arnt alone” value is reported as about 3 fold.

From publication PMC6824560, “Insight into the relationship between aryl-hydrocarbon receptor and β-catenin in human colon cancer cells” (PLoS ONE, 2019)
